How the values were obtained:
[1] = target: T1, purified recombinant full-length RBEL1A (UniProt Q3YEC7-1 1-729, purification (1): glycosylated (larger molecular mass); purification (2): unglycosylated or less glycosylated); assay: cross-linking; purified p53 (315-360) incubated with purified RBEL1A or BSA (1:1 or 2:1 molar ratio) 1 hour at 4 C, then glutaraldehyde 5 minutes at 4 C; SDS-PAGE, anti-p53 (FL-393) blot; settings: both partners purified
T1 construct: RBEL1A, Ras superfamily GTPase, full length; also called recombinant RBEL1A; RBEL1A (1); source: purified recombinant protein
T1 sequence (looked up): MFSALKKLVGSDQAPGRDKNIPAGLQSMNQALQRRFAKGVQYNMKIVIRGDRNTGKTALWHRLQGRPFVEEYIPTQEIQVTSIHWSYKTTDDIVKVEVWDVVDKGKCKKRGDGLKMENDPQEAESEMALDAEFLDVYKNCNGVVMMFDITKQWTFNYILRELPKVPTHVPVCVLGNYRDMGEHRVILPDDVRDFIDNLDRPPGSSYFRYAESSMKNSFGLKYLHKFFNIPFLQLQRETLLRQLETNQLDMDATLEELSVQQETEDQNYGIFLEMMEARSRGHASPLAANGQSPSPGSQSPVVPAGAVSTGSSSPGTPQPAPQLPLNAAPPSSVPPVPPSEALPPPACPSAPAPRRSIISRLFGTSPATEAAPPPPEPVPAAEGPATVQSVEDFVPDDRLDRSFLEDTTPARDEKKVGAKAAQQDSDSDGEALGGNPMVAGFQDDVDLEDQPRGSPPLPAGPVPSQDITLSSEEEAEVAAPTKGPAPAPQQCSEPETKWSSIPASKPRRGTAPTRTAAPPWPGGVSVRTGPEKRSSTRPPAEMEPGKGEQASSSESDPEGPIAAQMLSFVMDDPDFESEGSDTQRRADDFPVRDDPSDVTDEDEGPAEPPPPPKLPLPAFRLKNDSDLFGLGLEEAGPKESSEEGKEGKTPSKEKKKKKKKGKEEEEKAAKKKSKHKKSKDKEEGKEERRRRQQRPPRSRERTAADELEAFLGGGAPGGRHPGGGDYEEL

[2] = target: the molecule itself; assay: as above

B1: purified recombinant p53 tetramerization domain (residues 315-360) (domain or fragment, UniProt P04637 315-360, looked up)
chain: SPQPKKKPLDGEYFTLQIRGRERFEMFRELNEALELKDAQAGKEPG
notes: p53 tumor suppressor, residues 315-360 (tetramerization domain); also called p53-Oligo-D; recombinant p53 (315-360); source: purified recombinant polypeptide
B1 was tested, and the binding result [1] was “binds” and the “stoichiometry N” value [2] was 4.
